Test results published in FireProtDB.
Values joined by “and” are separate entries in the source; they are usually repeats but may differ in a detail not shown here. Equal entries are not always repeated.

Conditions: whole UniProt chain shown
[1] = Bos taurus, pH 5.3, 5 °C, GdnHCl, CD, Sodium acetate 0.02 M, reversible: yes
[2] = Bos taurus, pH 5, Thermal, CD, Tris-acetate 0.01 M, reversible: yes
[3] = Bos taurus, pH 8.4, Thermal, CD, Tris-acetate 0.01 M, reversible: no
[4] = Bacillus caldolyticus, pH 7, Thermal, CD, sodium cacodylate 100 mM, NaCl 2 M, reversible: yes
[5] = Bacillus caldolyticus, pH 7, Thermal, CD, sodium cacodylate 100 mM, reversible: yes
[6] = Aliivibrio salmonicida (strain LFI1238), pH 8, Thermal, DSC, HEPES, MgCl2 NaCl 5 mM 0.175, reversible: no
[7] = Aliivibrio salmonicida (strain LFI1238), pH 8, Thermal, DSC, HEPES, MgCl2 NaCl 5 mM 1, reversible: no
[8] = Aliivibrio salmonicida (strain LFI1238), pH 8, Thermal, DSC, Tris-HCl 50mM, NaCl 0.175 M
[9] = Aliivibrio salmonicida (strain LFI1238), pH 8, Thermal, DSC, Tris-HCl 50mM, NaCl 1 M
[10] = Bacillus amyloliquefaciens, pH 7.5, Thermal, fluorescence, Pipes 10 mM, transition: 2
[11] = Bos taurus, pH 2, Thermal, CD, KCl-HCl 0.1 M, reversible: yes
[12] = Bos taurus, pH 2, Thermal, CD, Sodium phosphate 0.2 M, reversible: yes
[13] = Bos taurus, pH 2, Thermal, DSC, KCl-HCl 0.1 M, reversible: yes
[14] = Bos taurus, pH 6.2, 25 °C, 2-Propanol, CD, Piperazine Unknown, NaCl 30 mM, transition: 2, reversible: Yes

B1: Acyl-CoA-binding protein wild type, P07107 (protein)
chain: MSQAEFDKAAEEVKHLKTKPADEEMLFIYSHYKQATVGDINTERPGMLDFKGKAKWDAWNELKGTSKEDAMKAYIDKVEELKKKYGI
- denaturant m value [1]: 2.7 kcal/mol/M
- denaturant midpoint (higher = more stable) [1]: 2.36 M
- unfolding free energy [1]: 6.1 kcal/mol

B2: Seminal ribonuclease wild type, P00669 (protein)
chain: MALKSLVVLPLLVLVLLLVRVQPSLGKESAAAKFERQHMDSGNSPSSSSNYCNLMMCCRKMTQGKCKPVNTFVHESLADVKAVCSQKKVTCKNGQTNCYQSKSTMRITDCRETGSSKYPNCAYKTTQVEKHIIVACGGKPSVPVHFDASV
- Tm [2]: 61.6 °C
- unfolding enthalpy (van 't Hoff) [2]: 151 kcal/mol
- Tm [3]: 65.2 °C
- unfolding enthalpy (van 't Hoff) [3]: 199 kcal/mol

B3: Cold shock protein CspB wild type, P41016 (protein)
chain: MQRGKVKWFNNEKGYGFIEVEGGSDVFVHFTAIQGEGFKTLEEGQEVSFEIVQGNRGPQAANVVKL
- unfolding free energy (Bacillus caldolyticus, pH 7, 60 °C, Thermal, CD, sodium cacodylate 100 mM, NaCl 2 M, reversible: yes): 3.37 kcal/mol
- unfolding free energy (Bacillus caldolyticus, pH 7, 60 °C, Thermal, CD, sodium cacodylate 100 mM, reversible: yes): 2.44 kcal/mol
- Tm [4]: 84.4 °C
- unfolding enthalpy (van 't Hoff) [4]: 61.4 kcal/mol
- Tm [5]: 76.9 °C
- unfolding enthalpy (van 't Hoff) [5]: 58.6 kcal/mol

B4: wild type, Q2XSL7 (protein)
chain: MKLIRLVISLIAVSFTVNVMAAPPSSFSKAKKEAVKIYLDYPTSFYCGCDITWKNKKKGIPELESCGYQVRKQEKRASRIEWEHVVPAWQFGHQRQCWQKGGRKNCTRNDKQFKSMEADLHNLVPAIGEVNGDRSNFRFSQWNGSKGAFYGQCAFKVDFKGRVAEPPAQSRGAIARTYLYMNNEYKFNLSKAQRQLMEAWNKQYPVSTWECTRDERIAKIQGNHNQFVYKACTK
- Tm [6]: 41.8 °C
- unfolding enthalpy (calorimetric) [6]: 64 kcal/mol
- Tm [7]: 51.9 °C
- unfolding enthalpy (calorimetric) [7]: 88.7 kcal/mol
- Tm [8]: 41.8 °C
- unfolding enthalpy (calorimetric) [8]: 64 kcal/mol
- Tm [9]: 51.9 °C
- unfolding enthalpy (calorimetric) [9]: 88.6 kcal/mol

B5: Subtilisin BPN' wild type, P00782 (protein)
chain: MRGKKVWISLLFALALIFTMAFGSTSSAQAAGKSNGEKKYIVGFKQTMSTMSAAKKKDVISEKGGKVQKQFKYVDAASATLNEKAVKELKKDPSVAYVEEDHVAHAYAQSVPYGVSQIKAPALHSQGYTGSNVKVAVIDSGIDSSHPDLKVAGGASMVPSETNPFQDNNSHGTHVAGTVAALNNSIGVLGVAPSASLYAVKVLGADGSGQYSWIINGIEWAIANNMDVINMSLGGPSGSAALKAAVDKAVASGVVVVAAAGNEGTSGSSSTVGYPGKYPSVIAVGAVDSSNQRASFSSVGPELDVMAPGVSIQSTLPGNKYGAYNGTSMASPHVAGAAALILSKHPNWTNTQVRSSLENTTTKLGDSFYYGKGLINVQAAAQ
- unfolding free energy (Bacillus amyloliquefaciens, pH 5, 20 °C, Thermal, DSC, Sodium acetate 100 mM, reversible: yes): 2.1 kcal/mol
- Tm (Bacillus amyloliquefaciens, pH 7, Thermal, CD, KPO4 100 mM): 65 °C
- Tm [10]: 53.9 °C and 56.8 °C
- unfolding enthalpy (calorimetric) [10]: 55.8 kcal/mol and 56.7 kcal/mol
- Tm (Bacillus amyloliquefaciens, pH 8, Thermal, DSC, Tris-HCl 50 mM, CaCl2 10 mM, reversible: no): 78.3 °C
- Tm (Bacillus amyloliquefaciens, pH 8, Thermal, DSC, Tris-HCl 50 mM, KCl 50 mM): 58.9 °C

B6: Beta-lactoglobulin wild type, P02754 (protein)
chain: MKCLLLALALTCGAQALIVTQTMKGLDIQKVAGTWYSLAMAASDISLLDAQSAPLRVYVEELKPTPEGDLEILLQKWENGECAQKKIIAEKTKIPAVFKIDALNENKVLVLDTDYKKYLLFCMENSAEPEQSLACQCLVRTPEVDDEALEKFDKALKALPMHIRLSFNPTQLEEQCHI
- Tm [11]: 78 °C
- heat capacity change of unfolding [11]: 1.33 kcal/mol/K
- unfolding enthalpy (van 't Hoff) [11]: 74.6 kcal/mol
- Tm [12]: 91 °C
- heat capacity change of unfolding [12]: 1.35 kcal/mol/K
- unfolding enthalpy (van 't Hoff) [12]: 88.8 kcal/mol
- Tm [13]: 77.8 °C
- heat capacity change of unfolding [13]: 1.33 kcal/mol/K
- unfolding enthalpy (calorimetric) [13]: 74.7 kcal/mol
- Tm (Bos taurus, pH 3, Thermal, DSC, phosphate 20 mM, reversible: yes): 77 °C
- denaturant m value [14]: 0.9 kcal/mol/M
- denaturant midpoint (higher = more stable) [14]: 4 M
- unfolding free energy [14]: 3.8 kcal/mol
- unfolding free energy (Bos taurus, pH 6.85, 25 °C, Urea, CD, Phosphate 0.01 M, chloride 0.2 M): 6.99 kcal/mol
- unfolding free energy (Bos taurus, pH 6.85, 25 °C, Urea, CD, Phosphate 0.01 M, citrate 0.2 M): 9.79 kcal/mol
- unfolding free energy (Bos taurus, pH 6.85, 25 °C, Urea, CD, Phosphate 0.01 M, phosphate 0.2 M): 9.18 kcal/mol
- unfolding free energy (Bos taurus, pH 6.85, 25 °C, Urea, CD, Phosphate 0.01 M, sulfate 0.2 M): 8.8 kcal/mol
- unfolding free energy (Bos taurus, pH 6.85, 25 °C, Urea, CD, Phosphate 0.01 M, tartrate 0.2 M): 7.58 kcal/mol
- unfolding free energy (Bos taurus, pH 7.1, 30 °C, GdnHCl, CD, phosphate 0.11 M, NaCl 0.04 M): 11.2 kcal/mol
